Data taken from the DeepSol protein solubility set.

Assay: soluble on expression in E. coli; label from the status in PepcDB or PDB records

Sequence	soluble on expression in E. coli
EECQVRVGDLTVAKTRGQLTDAAPIGPVTVQALGCNARQVALKADTDNFEQGKFFLISDNNRDKLYVNIRPMDNSAWTTDNGVFYKNDVGSWGGTIGIYVDGQQTNTPPGNYTLTLTGGYWAKDNKQGFTPSGTTGTTKLTVT	soluble
MRHRVKKKHFDRTKEQRLALYRSLARALIFDERIETTVERAKALRSFIEPLVELAKEGTLHARRQALSRLPDKPAIKKLFEDIAPRFEGRNGGYVRIIKLPYRRRGDGAEMAIIEWVELEHHHHHH	not soluble
MKFKSRVQMLNYVIGKKPDIMKTVDRRAEKEGVTDDNRLLDYKLLVISVLDAEAVYDEDRPIEEKKFSTSQEVDKYLETRFKEHMDSAWKEMFNK	not soluble
MKKLPNIHPGEVLMEEFLIPMEITSYRLAKEIGIPQTRVSEITKGRRRITADTALRLSKYFGNSPKFWLGLQDDYDIEEESQLIAEELKAIKKVVV	not soluble
MSLTISILGARVIDPNSGLDQVTDLHLDGGRIVAIGAAPAGFSASRTIQADGLVAAPGLVDLGVSLREPGYSRKGNIASETRAAVAGGVTSLCCPPQTKPVLDTSAVAELILDRAREAANSKVYPVGALTKGLEGEQLAELVALRDTGCVAFGNGLKEIPNNRTLARALEYAATFDLTVVFHSQDRDLAQGGLAHEGAMASFLGLPGIPESAETVALARNLLLVEQSGVRAHFSQITSARGARLIAQAQALGLPVTADVALYQLILTDESLREFSSLYHVQPPLRTAADRDGLREAVKSGVIQAISSHHQPHERDAKLAPFGATEPGISSVELLLPLAMTLVQDGLLDLPTLLARLSSGPAAALRLPAGELKVGGAADLVLFDPQASTVAGEQWFSRGENCPFIGHCLPGAVRYTLVDGHICHEAEGHHHHHH	soluble
SNALSASEERFQLAVSGASAGLWDWNPKTGAMYLSPHFKKIMGYEDHELPDEITGHRESIHPDDRARVLAALKAHLEHRDTYDVEYRVRTRSGDFRWIQSRGQALWNSAGEPYRMVGWIMDVTDRKRDEDALRVSREELRRL	soluble
MPSDAPIDFTGLIRASDLVVCGQATAEPLTLTEALMAQAADLPPFRLMVGPVFSDTFAAAPPNVSFVSYGVIGHARKLARAGRLDVIPSNYSAFCADFAAGRHRADVVLVQLAEAPDGRLSASLSCDYVIDAARRARLVIAEINPDAPFTYGAEWPGEVPIHIRVAARRKPVELPSGALDDVSRKIAANAAGLIADGATLQFGVGKIPDAILSSLVHARDLGIHSGLINDAVVELIERGVVTNARKGIDPGVTVTNQLIGTQRLYRFAHQNRSVRMQPAAYTHDHGVLGRINRLTAINSALQVGLDGSVNAETLNGVAIGAIGGQLDFVRGANASPGGRALIALPATAPDGSSRIVARVETVTTPRADVDVIVTEWGVAELRGCSLAERARQMIAIAAPEHRDRLAEQARTIALEHHHHHH	not soluble
EWALFLDIDGTLVDIAEQPHDVRVAASLPQDLARLADRLGGALALVTGRRVDWIDAHFGPHLFPAAGLHGVERRRASGELDRAGLAPSLNALRKDLGRRTARMPGVLLEDKVAAVALHYRQAPEREPDVRAMMEMALKVMGDGWVLQHGKMVVELRPASANKGTALEAFLTEPPFAGRRPVAIGDDVTDEEMFRVVNACGGLSVRICETEAPTLARARLASPQALRDLVAELGA	not soluble
MAALRYAGLDDTDSEDELPPGWEERTTKDGWVYYANHTEEKTQWEHPKTGKRKRVAGDLPYGWEQETDENGQVFFVDHINKRTTYLDPRLAFTVDDNPTKPTTRQRYDGSTTAMEILQGRDFTGKVVLVTGANSGIGFETAKSFALHGAHVILACRNLSRASEAVSRILEEWHKAKVEAMTLDLAVLRSVQHFAEAFKAKNVSLHVLVCNAGTFALPWGLTKDGLETTFQVNHLGHFYLVQLLQDVLCRSSPARVIVVSSESHRFTDINDSSGKLDLSRLSPPRSDYWAMLAYNRSKLCNILFSNELHRRLSPRGVTSNAVHPGNMMYSAIHRNSWVYKLLFTLARPFTKSMQQGAATTVYCAVAPELEGLGGMYFNNCCRCLPSEEAQSEETARALWELSERLIQDRLGSPSS	soluble
MGSDKIHHHHHHMNAPFVPSRVVARLADPGERPAVARFLDAHPDATVFHRAAWLDAVEQSTGHRTHVLVSGQDEAIRAVLPLHEVHSPLFGRALVSTGFGVGGGVVGKGDAALFAAAQELAVRLNCPTVELRGGPLPQGDGWHVKTDSHAGFVTPLAADDEAQLLAIPRKQRAEVRRGLGYGMEVRTGRSPEDRAMHHAVYAQSVRNLGTPVFPRRLFDAVLDGFGDDADILTVLHEGRPLASVLSLYHRGAVMPYWGGGTFEARAMRANDVMYYALMNHARARGCDRFDFGRSKVDSGAYHFKRNWGFAPQPLSYAHWTADGQAPRDVNPLSPRYRARIALWQKLPLAVANRLGPIIANGLA	not soluble
MSLIQLRPCPKSYTRDQDKATTPAETVRRVRERLASLDISILAETRRVDVGRLGIPVFLSVCGADARAVMPTRKQMGKGASLEQAQASALMELMERYSFFTFWRDMPGMVEATWSEARNRFGDALIPVDEILHSVHDTLSPDDAVRALDLWRWKFFPATDITHGREVWLPLDWFKKLGEFNGSSAGNTEEESILQGSCELVERHVCCLIDRTQPELPTIDPASLDDPVLLELAAAFERNGIRLVLKDFSMGMPVPTVGAIAWDPATFPERSEIVYTAGTSSSPVKAAIRAVTEVAQLAGDFCTGACYEASGLSKYESLDDIAWLVAGPVVALDTLPSVETDDIRDELAALCDGLAATGHTLYSVSTMNPDVGVNTHYNIVPGFHFRERDRNASLGLFIGRILSEEADAGTALAGLSVLEELYPGAHFLPFFKGMLALRAESHHEAISFFEQAEPLQPEADSRGLAAFYGAYVRTLLTDWQGALPGLDRAVTECPEMKEYFNLRGVCHFKLGDYAQAAQNFAQVLHIDKGAVVDLANLGLCHKFMGDTEKAEELLSAALEIDPGLDFARRHLDEMREGHHHHHH	soluble
QILSPNYKARADSNAFYQKPVYPSRGVIYDRNGELLVYNEPAYDLVAVTKEVGEFDTLALCQTLNVEPEYVRKRFQDIRDRRINPGYSPYVPQLLLAQLNPREAGRFQEQLFKFPGFSIRPRAIRQYKYHGAAHVLGYLSEANMRDLERDSSLIAGDYVGRSGIERQYEKTLRGEKGIEVLLRDARGRIKGHYSDGKYDSPAIPGRDLTLSIDSKLQTLGEQLMQGKRGAIVMIEPETGEVLCLVSSPSYDPSLLAGKDRGKNHLEMEHDRNKPLYARAIQATYPPGSTFKPAQGAIFLQEGVIRPTDAFSCYHGFPPLNNRPACHSHGSP	not soluble
MSLKKILVQWKNGPSQIGRMYPLPVFDEHDIVQLCSEVKDILRIQPAVIQRKPGVIIVGDLHGNFLNFLQIFAIHGLPPNQNYIFLGNYINYGEFSLEVVIYLFSLYYLFPSNISLLRGSTEFYPSKGPRSLSSNIDTTYGPNSILKSVFLETFTYLPIACLIGNSVLCSRSSLVSRYSNLQEIFHETLPIPCVVDQSHLFLSGLANVIPSEEVLEEFLATNNLNFLIFGGKNAGDGVENMLDDRCYALASDAHMGYCGIINLVGNQPPFAIIFTPDSDLLRENAQMLREGHHHHHH	not soluble
MAMVSEFLKQAWFIDNEEQEYIKTVKGSKGGPGSAVSPYPTFNPSSDVEALHKAITVKGVDEATIIEILTKRTNAQRQQIKAAYLQEKGKPLDEALKKALTGHLEEVALALLKTPAQFDADELRAAMKGLGTDEDTLNEILASRTNREIREINRVYKEELKRDLAKDITSDTSGDYQKALLSLAKGDRSEDLAINDDLADTDARALYEAGERRKGTDLNVFITILTTRSYPHLRRVFQKYSKYSKHDMNKVLDLELKGDIENCLTVVVKCATSKPMFFAEKLHQAMKGIGTRHKTLIRIMVSRSEIDMNDIKACYQKLYGISLCQAILDETKGDYEKILVALCGGD	soluble
MGSDKIHHHHHHMIKVSQLTVRYGELKAVEDLSLEVQRGEILSLVGPSGCGKTTVVKAILGLIPYEGKIEIFTSRLGYCPQKDVLFDWMTVYENAVLPLVLRKEQPPSNIKELFERFGLSGFEEKRPYQLSGGMRQKLSLLRAVLSGEELLVLDEPFSSVDAYTRKKLQIWLSEIVHRMKSTVVLITHDVEEAVFLSDRILILSDRPARILKEIRVPFSKPRTIKTFSDPRFSEIEEEVLETLMNQP	not soluble
MTKVLFITANPNSAEGSFGMAVGEAFIEAYKNEHPQDEVVTIDLFNTTVPAIDADVFAAWGKFAAGEGFEALTEVQQQKVAAMNTNLETFMNADRYVFVTPMWNFSYPPVVKAYLDNVAIAGKTFKYTENGPVGLLEGKKALHIQATGGVYSEGAYAAVDFGRNHLKTVLGFVGVNDTEYIAVEGMNANPEKAQEIKEAAIANARELAKRF	not soluble
MYELYTLLAEYYDTIYRRRIERVKAEIDFVEEIFKEDAKREVRRVLDLACGTGIPTLELAERGYEVVGLDLHEEMLRVARRKAKERNLKIEFLQGDVLEIAFKNEFDAVTMFFSTIMYFDEEDLRKLFSKVAEALKPGGVFITDFPCWFYGGRDGPVVWNEQKGEEKLVIMDWREVEPAVQKLRFKRLVQILRPNGEVKAFLVDDELNIYTPREVRLLAEKYFEKVKIYGNLKRELSPNDMRYWIVGIAKSF	soluble
MGSDKIHHHHHHMKTGRNDPCPCGSAKKYKNCCMDAISKQNSALLDDISQVTAMNPNLTHDELDLVLQQKAFAQNNRPIADFCGLSPAQMANWLYAPFNELNCVAISPPDDLSSSPVMRYLEVILDEAMAQNGSFKATSKGNLPTKLVKQASGLLPEFAVAQFSTNISISEYAGSNEDKFNALHYTRILAELSGIIYRKSGSYHVKKAAQKQYQSQGLTAFFLPMLEAAITKYNWGYLDSWEHDAVLSTFWLFMLWRLQSHASVDELIDEVATAFPDLLHQFPADKYRTPQAQLGMGIDSRFLKRFLQFWGFITLDPKRLFAEPREPRKVQIQPLLTQTFKFTI	not soluble
MGSDKIHHHHHHMEFSNAERDVFLIKIEKMIDRGALMSRYSRASDPDIRSVYEKEFKTGAKSGEEFYRRIFLEYGDESIAELTTAQMGIQNVSNVASKIIEEIRIGLSYLEKSTRYVRYDKKVDGRYLYISPERIGISGDDAKDYVQLCDNLFEFYSKALPQVEDYLRHKFPQDKLVFQNAGGKTLTEMDQNEKKIAERSYINAVRSRALDDVRYILPASTLTNIGISGNGRALIHLIQKLMEYEIPETTKLAKDIYDELKPELPQLIDDALSGHGLEIINFKKNLMGLFPYDLTGNFERIRLLSYGEEDKELRKVASLIEYPFHGDAASLYSRSSESYVKYMKELIESIRSLRANRRMKPGRAFESVNYVFELNLNYGSFRDLQRHRFLGIIRKPLTAAYGYDTPPVISAIDELKTQYDELMANSSSFYQRLREKYGPWISQYVVPFAFKYPITFSTNLSEVTYFVELRSTAQAHFDLRDIAVSMYREVSKVHPTLSRIIKFVDTADYPLGRLSAEFRKESKKAGI	not soluble
MASLRDIKAKINSTKKTSQITKAMEMVSASKLNRAEQNAKSFVPYMEKIQEVVASIAQGSKGINHPMLNARPVKRTGYIVITSDRGLAGGYNSNVLRTVSNVIRERHNMDSNQYSIIVLGRLGRDYLKRRGFNIIDEVVGLSDHPSFTDIKDLASRAIAMFADGAYDELYIYYNHYVSKISQEVTENKILPLTDVASDKPTTAYEFEPSEEEILKVLLPQYAESLVYGALLDGKASEHAARMTAMKSATDNAMEVIDSLTLSFNRARQAAITQEITEIVGGAAALE	not soluble
DLHEILHEAVPLDANEREILELKEDAFAQRRREIETRLRAANGKLADAIAKNPAWSPEVEAATQEVERAAGDLQRATLVHVFEMRAGLKPEHRPAYDRVLIDALRRGSQ	soluble
